In patent publication US20110318339A1 (FABRUS, published 2011):

Experiments:
[1] = target: T1, rHuman EGF R/Fc Chimera, CF (Cat# 344-ER) (human, UniProt P00533 25-645); experiment: Multispot ECL; Fab 2.0 nM
T1 construct: Bought from R&D Systems; also called epidermal growth factor receptor (EGF R)
Method: (§1) An 150 μl aliquot of 1% Bovine Serum Albumin (BSA) in Tris-buffered Saline Tween (TBST) was added to each well and allowed to incubate for 30 min at 20° C. followed by washing and tap drying to completely remove any residual solution. Subsequently, a 12.5 μl aliquot of 1% BSA TBST was added to each well followed by the addition of a 12.5 μl aliquot of a purified Fab. The plate was sealed and incubated for 1 hour at 20° C. with shaking.
(§2) Detection antibodies were prepared by individually conjugating both goat anti-human Kappa light chain polyclonal antibody (K3502-1MG, Sigma-Aldrich) and goat anti-human Lambda light chain polyclonal antibody (L1645-1 mL, Sigma-Aldrich) with Ruthenium (II) tris-bipyridine-(4-methylsulfone)-N-hydroxysuccinimide (SULFO-TAG NHS-ester, Meso Scale Discovery) according to the manufacturer's instructions. TAG-detection antibody at 25 μl was added to each well and allowed to incubate for 1 hour at 20° C. with shaking. Finally, 15 μl of Read Buffer P with Surfactant (Cat # R92PC-1, Meso Scale Discovery) was added to each well. The electrochemiluminescence was measured using a Sector Imager 2400 (Meso Scale Discovery). Data was analyzed by comparing the ECL signals for an antigen to the blank of each well. A signal to blank ratio of 4 or more was considered a “Hit” Fab.
(§3) To confirm a “Hit” from the initial Multispot ECL screening, a Fab concentration dependent titration was carried out to determine the Fab-antigen binding affinity.

[2] = target: T2, rHuman Erythropoietin R/Fc Chimera, CF (Cat# 963-ER) (human, UniProt P19235 25-250); experiment: Multispot ECL; Fab 2.0 nM
T2 construct: Bought from R&D Systems; also called EPO R/Fc; Epo R/Fc chimera
T2 sequence (looked up): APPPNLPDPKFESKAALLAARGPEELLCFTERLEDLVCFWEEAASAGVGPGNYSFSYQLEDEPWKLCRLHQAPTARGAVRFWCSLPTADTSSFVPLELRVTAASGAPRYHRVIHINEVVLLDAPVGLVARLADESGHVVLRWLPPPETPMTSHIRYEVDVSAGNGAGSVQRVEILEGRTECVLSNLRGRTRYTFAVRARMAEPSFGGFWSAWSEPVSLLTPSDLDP
Method: as §1, §2, §3

[3] = target: T3, rHuman HGF R/c-MET/Fc Chimera, CF (Cat# 358-MT/CF) (human, UniProt P08581 25-932); experiment: Multispot ECL; Fab 2.0 nM
T3 construct: Bought from R&D Systems; also called HGF R/Fc; hepatocyte growth factor receptor (HGF R/c-Met)
Method: as §1, §2, §3

[4] = target: T4, rHuman ErbB2/Fc Chimera, CF (Cat# 1129-ER) (human, UniProt P04626 23-652); experiment: Multispot ECL; Fab 2.0 nM
T4 construct: Bought from R&D Systems; also called human epidermal growth factor 2 receptor (ErbB2)
Method: as §1, §2, §3

[5] = target: T5, rHuman Notch-1/Fc Chimera, CF (Cat# 3647-TK) (human, UniProt P46531 19-526); experiment: Multispot ECL; Fab 2.0 nM
T5 construct: Bought from R&D Systems
Method: as §1, §2, §3

[6] = target: T6, rHuman CD44/Fc Chimera, CF (Cat# 3660-CD) (human, UniProt P16070 21-220); experiment: Multispot ECL; Fab 2.0 nM
T6 construct: Bought from R&D Systems
Method: as §1, §2, §3

[7] = target: T7, rHuman IGF-1 sR, (IGF-1 sR), CF (Cat# 391-GR) (human, UniProt P08069 31-932); experiment: Multispot ECL; Fab 2.0 nM
T7 construct: Bought from R&D Systems; also called insulin-like growth factor-1 soluble receptor
Method: as §1, §2, §3

[8] = target: T8, Recombinant Human DLL4 (Cat# 1506-D4/CF) (human, UniProt Q9NR61 27-529); experiment: Multispot ECL; Fab 2.0 nM
T8 construct: Bought from R&D Systems; also called rHuman DLL4; hDLL4
Method: as §1, §2, §3

[9] = target: T1, rHuman EGF R/Fc Chimera, CF (Cat# …); experiment: Multispot ECL; Fab 8.1 nM
Method: as §1, §2, §3

[10] = target: T2, rHuman Erythropoietin R/Fc Chimera, CF …; experiment: Multispot ECL; Fab 8.1 nM
Method: as §1, §2, §3

[11] = target: T3, rHuman HGF R/c-MET/Fc Chimera, CF (Cat# …); experiment: Multispot ECL; Fab 8.1 nM
Method: as §1, §2, §3

[12] = target: T5, rHuman Notch-1/Fc Chimera, CF (Cat# …); experiment: Multispot ECL; Fab 8.1 nM
Method: as §1, §2, §3

[13] = target: T8, Recombinant Human DLL4 (Cat# 1506-D4/CF); experiment: Multispot ECL; Fab 8.1 nM
Method: as §1, §2, §3

B1: Fab VH1-8_IGHD2-2*01_IGHJ6*01 & L12_IGKJ1*01 (Fab, V domains shown)
VH: QVQLVQSGAEVKKPGASVKVSCKASGYTFTSYDINWVRQATGQGLEWMGWMNPNSGNTGYAQKFQGRVTMTRNTSISTAYMELSSLRSEDTAVYYCARGGYCSSTSCYADYYYYYGMDVWGQGTTVTVSS
VL: not shown
ECL signal [1]: 424
ECL signal [2]: 433
ECL signal [3]: 356
ECL signal [4]: 382
ECL signal [5]: 539
ECL signal [6]: 447
ECL signal [7]: 367
ECL signal [8]: 605
ECL signal [9]: 560
ECL signal [10]: 660
ECL signal [11]: 551
ECL signal [12]: 612
ECL signal [13]: 1550
